According to article PMC7037651, “Chemically Crosslinked Bispecific Antibodies for Cancer Therapy: Breaking from the Structural Restrictions of the Genetic Fusion Approach” (International Journal of Molecular Sciences, 2020):
Each block holds one molecule with its values, some of them ahead of it.

Key:
soluble EGFR (sEGFR) [1] = target: soluble EGFR (sEGFR) (UniProt P00533); assay: SPR; Biacore 2000; sEGFR immobilised on a CM5 chip at the lower amount (1073 to 1122 RU); PBS with 0.005% Tween20; scFv monomer or dimer injected for 120 s at 10 to 250 nM; global fit, 1:1 Langmuir model
soluble EGFR (sEGFR) [2] = target: soluble EGFR (sEGFR) (UniProt P00533); assay: SPR; Biacore 2000; sEGFR immobilised on a CM5 chip at the higher amount (2605 to 2833 RU); PBS with 0.005% Tween20; scFv monomer or dimer injected for 120 s at 10 to 250 nM; global fit, 1:1 Langmuir model
soluble EGFR (sEGFR) [3] = target: soluble EGFR (sEGFR) (UniProt P00533); assay: SPR; Biacore 2000; sEGFR immobilised on a CM5 chip (amount not given for Tables 2 and 5); running buffer PBS with 0.005% Tween20; scFv monomer or dimer injected for 120 s at 10 to 250 nM; global fit, 1:1 Langmuir model
soluble EGFR (sEGFR) [4] = target: T1, soluble EGFR (sEGFR) (Homo sapiens (assumed; EGFR on human …, UniProt P00533); assay: SPR; Biacore 2000; sEGFR immobilised on a CM5 chip at the lower amount (1073 to 1122 RU); PBS with 0.005% Tween20; scFv monomer or dimer injected for 120 s at 10 to 250 nM; global fit, 1:1 Langmuir model; conditions: both partners purified
T1 construct: soluble epidermal growth factor receptor (sEGFR); also called epidermal growth factor receptor; immobilized EGFR; source: prepared as described previously [28]

soluble EGFR (sEGFR) [5] = target: T1, soluble EGFR (sEGFR); assay: SPR; Biacore 2000; sEGFR immobilised on a CM5 chip at the higher amount (2605 to 2833 RU); PBS with 0.005% Tween20; scFv monomer or dimer injected for 120 s at 10 to 250 nM; global fit, 1:1 Langmuir model; conditions: both partners purified
soluble EGFR (sEGFR) [6] = target: T1, soluble EGFR (sEGFR); assay: SPR; Biacore 2000; sEGFR immobilised on a CM5 chip (amount not given for Tables 2 and 5); running buffer PBS with 0.005% Tween20; scFv monomer or dimer injected for 120 s at 10 to 250 nM; global fit, 1:1 Langmuir model; conditions: both partners purified
EGFR on A431 cells = target: T2, EGFR on A431 cells (Homo sapiens (A431 cells), UniProt P00533); assay: flow cytometry on cells; competitive binding: 10^6 A431 cells mixed with non-labeled scFv or dimer (50 pmol), washed, then various amounts of FITC-labeled wild-type h528 scFv added; on ice; conditions: one partner purified
T2 construct: epidermal growth factor receptor on A431, a human epidermoid carcinoma line; also called target-expressing cells; A431 (EGFR-positive tumor cell line); source: endogenous, on A431 cells

Kd (soluble EGFR (sEGFR) [1]): 0.078 µM
Molecule: side–side bivalent h528 scFv dimer with C1 linker

Kd (soluble EGFR (sEGFR) [1]): 0.018 µM
koff (soluble EGFR (sEGFR) [1]): 0.0012 s⁻¹
kon (soluble EGFR (sEGFR) [1]): 62000 M⁻¹ s⁻¹
Kd (soluble EGFR (sEGFR) [2]): 0.023 µM
koff (soluble EGFR (sEGFR) [2]): 0.0015 s⁻¹
kon (soluble EGFR (sEGFR) [2]): 63000 M⁻¹ s⁻¹
Molecule: tail–tail bivalent h528 scFv dimer with C6 linker

Kd (soluble EGFR (sEGFR) [2]): 0.034 µM
Molecule: side–side bivalent h528 scFv dimer with C6 linker

Kd (soluble EGFR (sEGFR) [1]): 0.159 µM
Molecule: side–tail bivalent h528 scFv dimer with C6 linker

Kd (soluble EGFR (sEGFR) [1]): 0.149 µM
koff (soluble EGFR (sEGFR) [1]): 0.005 s⁻¹
kon (soluble EGFR (sEGFR) [1]): 34000 M⁻¹ s⁻¹
Kd (soluble EGFR (sEGFR) [2]): 0.109 µM
koff (soluble EGFR (sEGFR) [2]): 0.0047 s⁻¹
kon (soluble EGFR (sEGFR) [2]): 43000 M⁻¹ s⁻¹
Molecule: side–tail bivalent h528 scFv dimer with C1 linker

Kd (soluble EGFR (sEGFR) [3]): 0.026 µM
koff (soluble EGFR (sEGFR) [3]): 0.0052 s⁻¹
kon (soluble EGFR (sEGFR) [3]): 196000 M⁻¹ s⁻¹
B1: wild-type humanized 528 (h528) scFv (scFv, V domains shown)
VH: QVQLVQSGAEVKKPGASVKVSCKASGYTFTSYWMHWVRQAPGQGLEWMGNIYPGSGGTNYAEKFKNRVTMTRDTSISTAYMELSRLRSDDTAVYYCARSGGPYFFDYWGQGTLVTVSS
VL: DIVMTQSPLSLPVTPGEPASISCRSSQNIVHNNGITYLEWYLQKPGQSPQLLIYKVSDRFSGVPDRFSGSGSGTDFTLKISRVEAEDVGVYYCFQGSHIPPTFGQGTKVEIK

Kd (soluble EGFR (sEGFR) [4]): 0.144 µM
koff (soluble EGFR (sEGFR) [4]): 0.0075 s⁻¹
kon (soluble EGFR (sEGFR) [4]): 52000 M⁻¹ s⁻¹
Kd (soluble EGFR (sEGFR) [5]): 0.108 µM
koff (soluble EGFR (sEGFR) [5]): 0.0075 s⁻¹
kon (soluble EGFR (sEGFR) [5]): 69000 M⁻¹ s⁻¹
Kd (soluble EGFR (sEGFR) [6]): 0.135 µM
koff (soluble EGFR (sEGFR) [6]): 0.0079 s⁻¹
kon (soluble EGFR (sEGFR) [6]): 60000 M⁻¹ s⁻¹
B2: HK19-0K h528 scFv (scFv, V domains shown)
VH: QVQLVQSGAEVAEPGASVKVSCAASGYTFTSYWMHWVRQAPGQGLEWMGNIYPGSGGTNYAEEFQNRVTMTRDTSISTAYMELSRLRSDDTAVYYCARSGGPYFFDYWGQGTLVTVSS
VL: DIVMTQSPLSLPVTPGEPASISCRSSQNIVHNNGITYLEWYLQRPGQSPQLLIYQVSDRFSGVPDRFSGSGSGTDFTLTISRVEAEDVGVYYCFQGSHIPPTFGQGTEVEIE
notes: lysine kept at H19; linker (GGGGS)3; 0K scFv with the 19th residue of VH returned to lysine; also called HK19-0K scFv; KH19-0K scFv

Kd (soluble EGFR (sEGFR) [6]): 0.038 µM
koff (soluble EGFR (sEGFR) [6]): 0.0054 s⁻¹
kon (soluble EGFR (sEGFR) [6]): 141000 M⁻¹ s⁻¹
B3: 0KCDR h528 scFv (scFv, V domains shown)
VH: QVQLVQSGAEVKKPGASVKVSCKASGYTFTSYWMHWVRQAPGQGLEWMGNIYPGSGGTNYAEEFQNRVTMTRDTSISTAYMELSRLRSDDTAVYYCARSGGPYFFDYWGQGTLVTVSS
VL: DIVMTQSPLSLPVTPGEPASISCRSSQNIVHNNGITYLEWYLQKPGQSPQLLIYQVSDRFSGVPDRFSGSGSGTDFTLKISRVEAEDVGVYYCFQGSHIPPTFGQGTKVEIK
notes: linker (GGGGS)3; it looks like Kabat numbering; also called 0KCDR scFv

Kd (soluble EGFR (sEGFR) [6]): 0.137 µM
koff (soluble EGFR (sEGFR) [6]): 0.0082 s⁻¹
kon (soluble EGFR (sEGFR) [6]): 60000 M⁻¹ s⁻¹
B4: 0K h528 scFv (scFv, V domains shown)
VH: QVQLVQSGAEVAEPGASVQVSCAASGYTFTSYWMHWVRQAPGQGLEWMGNIYPGSGGTNYAEEFQNRVTMTRDTSISTAYMELSRLRSDDTAVYYCARSGGPYFFDYWGQGTLVTVSS
VL: DIVMTQSPLSLPVTPGEPASISCRSSQNIVHNNGITYLEWYLQRPGQSPQLLIYQVSDRFSGVPDRFSGSGSGTDFTLTISRVEAEDVGVYYCFQGSHIPPTFGQGTEVEIE
notes: linker (GGGGS)3; it looks like Kabat numbering; also called h528 scFv without lysine in the CDR and FR

binding result (EGFR on A431 cells): binds
B5: FITC-labeled wild-type h528 scFv (scFv, V domains shown)
VH: QVQLVQSGAEVKKPGASVKVSCKASGYTFTSYWMHWVRQAPGQGLEWMGNIYPGSGGTNYAEKFKNRVTMTRDTSISTAYMELSRLRSDDTAVYYCARSGGPYFFDYWGQGTLVTVSS
VL: DIVMTQSPLSLPVTPGEPASISCRSSQNIVHNNGITYLEWYLQKPGQSPQLLIYKVSDRFSGVPDRFSGSGSGTDFTLKISRVEAEDVGVYYCFQGSHIPPTFGQGTKVEIK
notes: linker (GGGGS)3; m4 with a fluorescein label; also called fluorescently labeled wild-type scFv; labeled wild-type scFv

Kd (soluble EGFR (sEGFR) [4]): 0.221 µM
koff (soluble EGFR (sEGFR) [4]): 0.0086 s⁻¹
kon (soluble EGFR (sEGFR) [4]): 39000 M⁻¹ s⁻¹
Kd (soluble EGFR (sEGFR) [5]): 0.207 µM
koff (soluble EGFR (sEGFR) [5]): 0.0089 s⁻¹
kon (soluble EGFR (sEGFR) [5]): 43000 M⁻¹ s⁻¹
Kd (soluble EGFR (sEGFR) [6]): 0.205 µM
koff (soluble EGFR (sEGFR) [6]): 0.0086 s⁻¹
kon (soluble EGFR (sEGFR) [6]): 42000 M⁻¹ s⁻¹
B6: LK103-0K h528 scFv (scFv, V domains shown)
VH: QVQLVQSGAEVAEPGASVQVSCAASGYTFTSYWMHWVRQAPGQGLEWMGNIYPGSGGTNYAEEFQNRVTMTRDTSISTAYMELSRLRSDDTAVYYCARSGGPYFFDYWGQGTLVTVSS
VL: DIVMTQSPLSLPVTPGEPASISCRSSQNIVHNNGITYLEWYLQRPGQSPQLLIYQVSDRFSGVPDRFSGSGSGTDFTLTISRVEAEDVGVYYCFQGSHIPPTFGQGTKVEIE
notes: linker (GGGGS)3; lysine kept at L103; also called LK103-0K scFv
